Results reported in patent publication US20160289747, “DETECTION OF NUCLEIC ACIDS BY STRAND INVASION BASED AMPLIFICATION” (ORION DIAGNOSTICA OY, published 2016).

T1: gp32 single-stranded DNA binding protein (Enterobacteria phage T4, UniProt P03695 P03695:1-301)
T1 sequence: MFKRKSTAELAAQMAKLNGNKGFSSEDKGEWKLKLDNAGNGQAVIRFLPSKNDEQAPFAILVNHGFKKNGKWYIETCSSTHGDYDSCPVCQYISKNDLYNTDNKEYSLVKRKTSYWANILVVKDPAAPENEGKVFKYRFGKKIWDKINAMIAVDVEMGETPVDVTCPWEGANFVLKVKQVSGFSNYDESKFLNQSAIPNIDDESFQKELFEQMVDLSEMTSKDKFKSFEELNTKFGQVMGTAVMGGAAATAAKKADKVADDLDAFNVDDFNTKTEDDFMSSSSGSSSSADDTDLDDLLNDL


Assays:
UvsX recombinase [1] = molecular target: T2, UvsX recombinase (Enterobacteria phage T4, UniProt P04529 P04529:1-391); experiment: probe remained quenched; Mg, ATP, 40 C; details: label: fluorophore and quencher
Protocol: (§1) The oligonucleotide probes were incubated in the presence or absence of 200 nM complementary template (SEQ ID NO: 34 for probes with SEQ ID NO 1-8, or SEQ ID NO: 44 for probes with SEQ ID NO 9 or 10) and 5 μM UvsX in buffer containing 20 mM Tris-acetate pH 8.0, 10 mM Magnesium acetate, 2 mM ATP, 60 mM Tris-Phosphocreatine and 0.025 U/μl Creatine Kinase. Fluorescence was measured after 20 minutes incubation at 40 degrees centigrade.

RecA [2] = molecular target: T3, RecA (Escherichia coli, UniProt P0A7G6 P0A7G6:2-353); experiment: no significant fluorescence increase; Mg, ATP; details: tags: New England Biolabs; label: fluorophore and quencher
Protocol: (§2) The effect of Escherichia coli recombinase, RecA (New England Biolabs) on signal from oligonucleotide probes was also elucidated (FIG. 1d). Similar concentrations of oligonucleotide probes to those used in FIGS. 1a and 1b were incubated in the presence or absence of 100 μg/ml of RecA in a buffer containing 70 mM Tris-HCl pH 7.6.10 mM MgCl₂, 5 mM DTT and 10 mM ATP. […] However, the increase was not as high as that seen with T4 UvsX.

[3] = molecular target: T1, gp32 single-stranded DNA binding protein; experiment: little or no fluorescence increase; details: tags: New England Biolabs; label: fluorophore and quencher
Protocol: (§3) The effect of the single-strand binding protein, bacteriophage T4 gp32 (New England Biolabs), on signal from the same oligonucleotide probes used with UvsX was also elucidated. Similar concentrations of oligonucleotide probes to those used with UvsX were incubated in the presence or absence of 0.25 mg/ml of gp32 and 200 nM complementary template ((SEQ ID NO: 34 for probes with SEQ ID NO 1-8 or SEQ ID NO: 44 for probes with SEQ ID NO: 9 or 10) in a buffer containing 20 mM Tris-acetate pH 7.9, 50 mM potassium acetate, 10 mM Magnesium Acetate and 1 mM DTT.

UvsX recombinase [4] = molecular target: T2, UvsX recombinase; experiment: fluorescence dequenching; 5 uM UvsX, Mg, ATP, 40 C; details: label: fluorophore and quencher
Protocol: as §1

[5] = molecular target: T1, gp32 single-stranded DNA binding protein; experiment: fluorescence dequenching; 0.25 mg/ml gp32, Mg, K acetate; details: tags: New England Biolabs; label: fluorophore and quencher
Protocol: as §3

RecA [6] = molecular target: T3, RecA; experiment: fluorescence increase, less than UvsX; Mg, ATP; details: tags: New England Biolabs; label: fluorophore and quencher
Protocol: as §2

T3 sequence (P0A7G6 2-353, one chain of several): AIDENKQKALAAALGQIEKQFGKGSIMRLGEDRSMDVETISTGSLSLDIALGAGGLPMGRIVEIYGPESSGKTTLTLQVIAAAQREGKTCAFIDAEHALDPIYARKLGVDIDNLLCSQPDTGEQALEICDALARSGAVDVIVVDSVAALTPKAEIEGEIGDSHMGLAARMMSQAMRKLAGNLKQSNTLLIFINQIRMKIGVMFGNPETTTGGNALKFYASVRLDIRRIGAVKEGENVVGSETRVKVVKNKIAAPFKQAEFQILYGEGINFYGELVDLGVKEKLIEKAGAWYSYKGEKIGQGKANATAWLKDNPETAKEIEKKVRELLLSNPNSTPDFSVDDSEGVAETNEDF
T2 sequence (P04529 whole entry, one chain of several): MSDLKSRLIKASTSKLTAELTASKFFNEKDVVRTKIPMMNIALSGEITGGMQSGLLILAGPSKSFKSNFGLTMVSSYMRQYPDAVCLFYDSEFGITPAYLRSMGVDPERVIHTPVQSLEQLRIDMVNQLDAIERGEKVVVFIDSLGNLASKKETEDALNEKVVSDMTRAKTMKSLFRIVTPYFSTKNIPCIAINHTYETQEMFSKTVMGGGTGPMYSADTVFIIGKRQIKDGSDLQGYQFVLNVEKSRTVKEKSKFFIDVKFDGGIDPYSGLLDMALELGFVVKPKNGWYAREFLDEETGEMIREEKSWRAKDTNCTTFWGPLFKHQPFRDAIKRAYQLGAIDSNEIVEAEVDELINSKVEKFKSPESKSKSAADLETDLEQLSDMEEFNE

Row | Binder | binding result (UvsX recombinase [1]) | binding result (RecA [2]) | binding result [3] | binding result (UvsX recombinase [4]) | binding result [5] | binding result (RecA [6])
1 | AGUUGAUGUGUA (XNA, LNA) [LNA 12] | no binding | no binding | no binding | – | – | –
2 | AGCCGAUGACUAAUGC (ssRNA, 2'-OMe) [2'-O-methyl RNA 16] | no binding | – | no binding | – | – | –
3 | AGCCGATGACTAATGC (ssDNA) [DNA 16] | – | – | – | binds | binds | –
4 | AGCCGAUGACUAAUGC (ssRNA) [RNA 16] | no binding | – | no binding | – | – | –
5 | ACGAAAGCCGAUGACUAAUGC (ssRNA, 2'-F) [2'-fluoro RNA 21] | no binding | no binding | no binding | – | – | –
6 | ACGAAAGCCGAUGACUAAUGC (ssRNA) [RNA 21] | no binding | no binding | no binding | – | – | –
7 | AGCCGAUGACUAAUGC (ssRNA, 2'-F) [2'-fluoro RNA 16] | no binding | – | no binding | – | – | –
8 | ACGAAAGCCGATGACTAATGC (ssDNA) [DNA 21] | – | – | – | binds | binds | binds
9 | ACGAAAGCCGAUGACUAAUGC (ssRNA, 2'-OMe) [2'-O-methyl RNA 21] | no binding | no binding | no binding | – | – | –
